Target: the molecule itself
Assay: AUC

B1: SSB-ΔL, linkerless variant of E. coli SSB (SSBΔ115–168) (natural protein, UniProt P0AGE0 2-178, looked up)
chain: ASRGVNKVILVGNLGQDPEVRYMPNGGAVANITLATSESWRDKATGEMKEQTEWHRVVLFGKLAEVASEYLRKGSQVYIEGQLRTRKWTDQSGQDRYTTEVVVNVGGTMQMLGGMDFDDDIPF
- stoichiometry N: 4

— article PMC5576569 (Journal of molecular biology, 2017)
